Common to all, as to conditions: both partners purified
The target in assay [1] is T1, histone H3/H4 tetramer (UniProt P61830 1-136; P02309 1-103). The experiment in a line: native gel or EMSA; 0.5 uM Cdc45-7HIS mixed with 0-2 uM H3/H4 tetramer, 15 min at 30 °C; 25 mM HEPES-KOH pH 7.5, 1 mM EDTA, 10% glycerol, 0.05% Tween 20, 150 mM KCl; loss of the free Cdc45 band on 5-20% Tris-Glycine gel, Coomassie; apparent. A general note: A gel shift assay detects complexes by their altered migration in electrophoresis.

For assay [2], the target named is T1, histone H3/H4 tetramer. The experiment in a line: native gel or EMSA; 0.5 uM Cdc45-7HIS mixed with 0-2 uM H3/H4 tetramer, 15 min at 30 °C; 25 mM HEPES-KOH pH 7.5, 1 mM EDTA, 10% glycerol, 0.05% Tween 20, 300 mM KCl; loss of the free Cdc45 band on 5-20% Tris-Glycine gel, Coomassie; apparent.
Assay [3] addresses T1, histone H3/H4 tetramer. The experiment in a line: native gel or EMSA; 0.5 uM Cdc45-7HIS mixed with 0-2 uM H3/H4 tetramer, 15 min at 30 °C; 25 mM HEPES-KOH pH 7.5, 1 mM EDTA, 10% glycerol, 0.05% Tween 20, 750 mM KCl; loss of the free Cdc45 band on 5-20% Tris-Glycine gel, Coomassie; apparent.

B1: Cdc45-7HIS (budding yeast Cdc45, wild type) (natural protein)
chain: ISQFSEAYNKILRNSSSHSSCQLVIFVSCLNIDALCATKMLSLLFKKQLVQSQIVPIFGYSELRRHYSQLDDNINSLLLVGFGGVIDLEAFLEIDPQEYVIDTDEKSGEQSFRRDIYVLDAHRPWNLDNIFGSQIIQCFDDGTVDDTLGEQKEAYYKLLELDEESGDDELSGDENDNNGGDDEATDADEVTDEDEEDEDETISNKRGNSSIGPNDLSKRKQRKKQIHEYEGVLEEYYSQGTTVVNSISAQIYSLLSAIGETNLSNLWLNILGTTSLDIAYAQVYNRLYPLLQDEVKRLTPSSRNSVKTPDTLTLNIQPDYYLFLLRHSSLYDSFYYSNYVNAKLSLWNENGKKRLHKMFARMGIPLSTAQETWLYMDHSIKRELGIIFDKNLDRYGLQDIIRDGFVRTLGYRGSISASEFVEALTALLEVGNSTDKDSVKINNDNNDDTDGEEEEDNSAQKLTNLRKRWVSNFWLSWDALDDRKVELLNRGIQLAQDLQRAIFNTGVAILEKKLIKHLRIYRLCVLQDGPDLDLYRNPLTLLRLGNWLIECCAESEDKQLLPMVLASIDENTDTYLVAGLTPRYPRGLDTIHTKKPILNNFSMAFQQITAETDAKVRIDNFESSIIEIRREDLSPFLEKLTLSGLL
notes: Cdc45, budding yeast; also called WT; source: Escherichia coli, purified
For B1, the Kd with histone H3/H4 tetramer [1] was determined as 0.068 µM; with histone H3/H4 tetramer [2], 0.09 µM; in the assay with histone H3/H4 tetramer [3], 0.216 µM.

Values taken from article PMC11531469, “Molecular mechanism of parental H3/H4 recycling at a replication fork” (Nature Communications, 2024).
